Experimental data taken from the DeepSol protein solubility set.

Assay: soluble on expression in E. coli; label from the status in PepcDB or PDB records

With “MLYEKFEYNINNLIGNFGLSKIAIAVSGGSDSISLLYLANIWARKNNIELFVISVDHNLRPQSKQENYYIHTISSNLNRKYYNLSFDHQNNFSNLQERAREGRYDLMTNLCLELDVLVLLTAHHEDDYVENFCLRLERNSGIFGLSSSNIHWYNNIQIIRPLYNIPKSELVEYLVNHKIKWFEDESNLSDKYRRNIIRQKLFKEENYIKAEISLQQLKTNKLIEDELKPALISAIAEAVKIFEYGFTFLDLVKFDKFLNEVKAQIINFLLIMISGQSRSARFYSIAHILKLISQDINFKNTVHGCVIKRIQNELLIYREFGKKLPKSKILLDKSVIWDNRFCITKNQKTPDCVITYLSLADYKAIKKQLDLKHLKNLSCKNHNAILFTLPIIKILEKVIAIPHISYYDNDVWNFEVSFAPNFVSRFTHFC” the “soluble on expression in E. coli” value was “not soluble”.

With “MTVTIKELTNHNYIDHELSATLDSTDAFEGPEKLLEIWFFPHKKSITTEKTLRNIGMDRWIEILKLVKCEVLSMKKTKELDAFLLSESSLFVFDHKLTMKTCGTTTTLFCLEKLFQIVEQELSWAFRTTQGGKYKPFKVFYSRRCFLFPCKQAAIHQNWADEVDYLNKFFDNGKSYSVGRNDKSNHWNLYVTETDRSTPKGKEYIEDDDETFEVLMTELDPECASKFVCGPEASTTALVEPNEDKGHNLGYQMTKNTRLDEIYVNSAQDSDLSFHHDAFAFTPCGYSSNMILAEKYYYTLHVTPEKGWSYASFESNIPVFDISQGKQDNLDVLLHILNVFQPREFSMTFFTKNYQNQSFQKLLSINESLPDYIKLDKIVYDLDDYHLFYMKLQKKI” the “soluble on expression in E. coli” value was “soluble”.

With “MSIHICQPVSPKENPNGILNNSRPTTALSGLPELHTVGQGADLEIWTKDSHALLFLLKGEPAVFVGPESGNSQLSGDNVVLLAANLRIRLRAEKGPATLICFYFHPTLHLCLGICPSSGNKKECRRRTEIVHISSLQRETMVNSWLHSVMGYLSEMPTSSEIFELKLRELFCIFRSRYEKPLLDNFLSSFHCQNKGFRAFVFRHHLECRSAEELAAKMNLSLSSFKRHFNQEFSCPPLKWMHEERAKHVYTDLADPSLSLKAIAEKNLFSSVSYLCAFCRKMLGNTPLQLRKAMGQQPK” the “soluble on expression in E. coli” value was “not soluble”.

With “MATYYSNDFRAGLKIMLDGEPYAVEASEFVKPGKGQAFARVKLRRLLTGTRVEKTFKSTDSAEGADVVDMNLTYLYNDGEFWHFMNNETFEQLSADAKAIGDNAKWLLDQAECIVTLWNGQPISVTPPNFVELEIVDTDPGLKGDTAGTGGKPATLSTGAVVKVPLFVQIGEVIKVDTRSGEYVSRVK” the “soluble on expression in E. coli” value was “soluble”.

With “MASGDVRIASLVPSITELLFDLGLADQLVARTGFCIHPEPAVRAVAKVGGTKDVKLDRLRALAPTHVVVNIDENRRETVDEIRTFVPHVIVTHPCAPEDNLALYRLLGGIFGRRPQAEALVGQLRGELDAIQAQTWPLEHHHHHH” the “soluble on expression in E. coli” value was “not soluble”.

For “MASYAELFDIGEDFAAFVGHGLATEQGAVARFRQKLESNGLPSALTERLQRIERRYRLLVAGEMWCPDCQINLAALDFAQRLQPNIELAIISKGRAEDDLRQRLALERIAIPLVLVLDEEFNLLGRFVERPQAVLDGGPQALAAYKAGDYLEHAIGDVLAIIEGAAR”, the “soluble on expression in E. coli” value was “soluble”.

For “MPRELGESLELRKGRHSVVYLTEKYAIKQFHERFRYNFLKEVKFLTLLQPFFFTPKLYFVDFANLRIVMERLRGRRFDEAFIRKAVERALEACFIMDVMGVEKQEMNHPDKHIIVGDDVYLIDFERARFKDRPSNLTQFCMYLRRFGIEIEKTLLKDYKTSVNCENFSRILHSVVEKLK”, the “soluble on expression in E. coli” value was “not soluble”.

With “MRERAYFIGAHAYSAPIIEPALYLVATPIGNLADITLRALQVLAGVDILACEDTRVTRVLLERYGIQKKTFLYHEYNAQKAGPKLLTALEENKAIALVSDAGTPLISDPGFRLVEEARKAGHKIVPIPGASALLAALVATGLPTDSFFFAGFLSARKAQRQKRLEQLKTIPATLVFYESPHRLVETLQDMVALFSADRPAAICRELTKKFETVDVSNLGNLSESYGKQAHIRGEIVVLVGQKLSSLNVMSDHEIDEMLLELARTYSAAKAASLASKKTGLKKQELFQRLNFLKDA” the “soluble on expression in E. coli” value was “not soluble”.

In the case of “QDVGQKSIFSITPEFDEVRSISNVGSNGDISSHGNTIYFTRHTLNSPQDIFSIDNHGDDLTQLTHINKDKLGDVKFADYQQFNFKGWNDETVHGYWLKPANFEAGKKYPIAFLVHGGPQGSFGNMFHYRWNAQLWAAQGYGVVMVDFHGSTGYGQEFTHSISRDWGGKPLEDLQKGLDFIVKEQPWLDGDNACALGASYGGYMMNWIAGNWPTRFKCLINHAGLYDMPSFYQSTEELWFPEYDMGGPSWGKENGSAKGKVSPDYTKFNPSAYVNNWQTPMLVIQGELDYRVPYAQSLGAFTTLQRKGIDSRLVMFPDEDHHIRKPDNLVVWYDEVFKWLEKYTK”, the “soluble on expression in E. coli” value was “not soluble”.

For “MGLWFEEGAEERQVLGPFREFLKAEVAPGAAERDRTGAFPWDLVRKLAEFGVFGALVPEAYGGAGLSTRLFARMVEAIAYYDGALALTVASHNSLATGHILLAGSEAQKEAFLPKLASGEALGAWGLTEPGSGSDAAALKTKAEKVEGGWRLNGTKQFITQGSVAGVYVVMARTDPPPSPERKHQGISAFAFFRPERGLKVGRKEEKLGLTASDTAQLILEDLFVPEEALLGERGKGFYDVLRVLDGGRIGIAAMAVGLGQAALDYALAYAKGREAFGRPIAEFEGVSFKLAEAATELEAARLLYLKAAELKDAGRPFTLEAAQAKLFASEAAVKACDEAIQILGGYGYVKDYPVERYWRDARLTRIGEGTSEILKLVIARRLLEAV”, the “soluble on expression in E. coli” value was “soluble”.

In the case of “MGSSSSFSSSSSKLLFRQLFENESSTFTYLLADVSHPDKPALLIDPVDKTVDRDLKLIDELGLKLIYAMNTHVHADHVTGTGLLKTKLPGVKSVISKASGSKADLFLEPGDKVSIGDIYLEVRATPGHTAGCVTYVTGEGADQPQPRMAFTGDAVLIRGCGRTDFQEGSSDQLYESVHSQIFTLPKDTLIYPAHDYKGFEVSTVGEEMQHNPRLTKDKETFKTIMSNLNLSYPKMIDVAVPANMVCGLQDVPSQAN”, the “soluble on expression in E. coli” value was “soluble”.

In the case of “SGEIKVSPDYNWFRGTVPLKKIIVDDDDSKIWSLYDAGPRSIRCPLIFLPPVSGTADVFFRQILALTGWGYRVIALQYPVYWDHLEFCDGFRKLLDHLQLDKVHLFGASLGGFLAQKFAEYTHKSPRVHSLILCNSFSDTSIFNQTWTANSFWLMPAFMLKKIVLGNFSSGPVDPMMADAIDFMVDRLESLGQSELASRLTLNCQNSYVEPHKIRDIPVTIMDVFDQSALSTEAKEEMYKLYPNARRAHLKTGGNFPYLCRSAEVNLYVQIHLLQFHGTKYAAIDPSMVSAEELEVQKGSLGISQEEQ”, the “soluble on expression in E. coli” value was “soluble”.

With “MSLTQRIDFQTDPSRYRHWRVAYDGEIANLYMDVDEQGGLFPGYELKLNSYDLGVDIELADIVQRMRFEHPEVKVVVMQSGKDRVFCAGANIRMLGGASHAHKVNFCKFTNETRNTYEAAEADSGQKYIAAVKGACAGGGYELALACNYIMLTNDSSSSVALPEVPLLAVLPGTGGLTRVTDKRKVRRDLADVFCSVEEGVRGQRAVDWRLVDEIAPNSKFDEVVQERAREFASASVKPSGLTGIALTPLDRRFAEDGSVTYSTVEVVVEREAGRATLTISGPTDAAPDTVDALQAQGAEAWILRAARELDDAILHLRLNERRIGTLVIQTQGDGAAVAAHEALLLENRDHWLANEILQHWKRVLKRVDMTSRSLVAIVEHGSCFAGPLAELLWAVDRSYMMLEEFEGDNRPLAAITLSPGNFGTYPMGNDLSRLATRFLGTPEAVEAARARIGEALEAEEAEKLGLVTYVLDDIDWEDEVRVFLEERASFSPDAMTGMEANLRFAGPETMETRIFGRLTAWQNWIFQRPNAVGPDGALQRYGTGVRGDYDMERVEGHHHHHH” the “soluble on expression in E. coli” value was “soluble”.

With “MNYRHIYHAGNFADVFKHIIVTRIIEYLKRKEKAFRVIDTHAGIGIYDLSSLEAHKTGEWREGVYQLLSTPIPEDLKALLYPWCNIIETLNKGKKDILFYPGSPVLIRQLLRKQDRLTAIELHREDYHILAKNFAGDYQTKVLHLNGWLSLNAHLPPKEKRGFILVDPPFEKPGEFSRLIEGLMKAYRRFSGGIYALWYPVKYDKEIENFLHALHQTGIPKILQLEMRIRKSSIPPTMNGSGMILINPPYLLEEEIKKLSPFLIARLGQDKNAQITHKWIQKEQLLC” the “soluble on expression in E. coli” value was “not soluble”.

In the case of “VGEVNLSARGNFTFARNEILEYDQVPQVYPWLEKKGTRLNSWKLYIADGLYTADDFNITGEGLNRQYELKPGVVSGLSSGVRPGDIKYKDLNGDGKIDSNDQMEDVGNPSVPEIVYGFGLNAEWKGAYVGIFFQGSGNTSTVLGASSNGAFFPFQWGVEESAVRSEVANRWTEQNPSQNVMFPRMHSTNYDNNTAASTWWLRNASFLRLKNIEVGYNFKEKTLKKIGIQALRVYLQGNNLCVWDDIKMWDPELGNTNGGFSYPLSRTFTFGLDFTF”, the “soluble on expression in E. coli” value was “not soluble”.

For “MISILYDEIVSCSRCERLIEYRKNFKIPPRFKDWNYWNKPVPGFGDEKAKILIVGLAPALHGGNRTGRVFTGDESGKWVIKGLYALGLSNKEEGKTREDGLEVKEVYLTNTVKCAPPKNKPTREEISNCSRFLIEEIKSLRIKVILALGRIAFDTILSLYGIKSKFYHGVVIKLPDDKILIGSYHPSAQNTKTGRLKWEDWIKILKLAYEIANNPQY”, the “soluble on expression in E. coli” value was “soluble”.

For “MPGELDTFKEAVKIIIEKEFPELLSPARHMMRAIVIDARQSDCDLQVLAADGSPHPSFPPLANVLVPVRKSVQIGQKVRIGFYYGDPAMPYIDEVLSNGEA”, the “soluble on expression in E. coli” value was “not soluble”.

In the case of “MASLLNARTAVITGGAQGLGLAIGQRFVAEGARVVLGDVNLEATEVAAKRLGGDDVALAVRCDVTQADDVDILIRTAVERFGGLDVMVNNAGITRDATMRTMTEEQFDQVIAVHLKGTWNGTRLAAAIMRERKRGAIVNMSSVSGKVGMVGQTNYSAAKAGIVGMTKAAAKELAHLGIRVNAIAPGLIRSAMTEAMPQRIWDQKLAEVPMGRAGEPSEVASVAVFLASDLSSYMTGTVLDVTGGRFI”, the “soluble on expression in E. coli” value was “soluble”.

For “MAHHHHHHMRAIQTLFIHSDKRVFLFPNTSNRTKYPSLITFPKIVLYSTPEAKRYRCVQKYLSTDFSSCSDNPHEILGRILRVPQSRSSMRKMLFTIPGIDPIQGILNGSRVCNELIRIKDVTWNRPHLIHAFFDHLPVFRFFLRSLVTLHPRTHRLHIHLVRAIHDDSRRSFLFLSFIIVAHAWR”, the “soluble on expression in E. coli” value was “not soluble”.

For “SDEEKKRRAATARRQHLKSAMLQLAVTEIEKEAAAKEVEKQNYLAEHSPPLSLPGSMQELQELSKKLHAKIDSVDEERYDTEVKLQKTNKELEDLSQKLFDLRGKFKRPPLRRVRMSADAMLRALLGSKHKVNMDLR”, the “soluble on expression in E. coli” value was “soluble”.

With “MCQATNGPSRVVTKKHRKFFERHLQLLPSSHQGHDVNRMAIIFYSISGLSIFDVNVSAKYGDHLGWMRKHYIKTVLDDTENTVISGFVGSLVMNIPHATTINLPNTLFALLSMIMLRDYEYFETILDKRSLARFVSKCQRPDRGSFVSCLDYKTNCGSSVDSDDLRFCYIAVAILYICGCRSKEDFDEYIDTEKLLGYIMSQQCYNGAFGAHNEPHSGYTSCALSTLALLSSLEKLSDKFKEDTITWLLHRQVSSHGCMKFESELNASYDQSDDGGFQGRENKFADTCYAFWCLNSLHLLTKDWKMLCQTELVTNYLLDRTQKTLTGGFSKNDEEDADLYHSCLGSAALALIEGKFNGELCIPQEIFNDFSKRCCF” the “soluble on expression in E. coli” value was “soluble”.

In the case of “MEKMKNLDGKVALVTGASRGIGRAIAMRLANDGALVAIHYGRNKQAADETIREIESNEGKAFLIEADLNSIDGVKKLVEQLKNELQIRVGTSEIDILVNNAGIGTQGTIENTTEEIFDEIMAVNIKAPFFLIQQTLPLLRAEGRVINISSAEVRLGFTGSIAYGLSKGALNTMTLPLAKHLGERGITVNTIMPGYTKTDINAKLLDDPEIRNFAANSSVFGRIGQVEDIADAVAFLAASDSRWVTGQIIDVSGGFCL”, the “soluble on expression in E. coli” value was “not soluble”.

With “MEGGKLQSTFVFEEIGRRLKDIGPEVVKKVNAVFEWHITKGGNIGAKWTIDLKSGSGKVYQGPAKGAADTTIILSDEDFMEVVLGKLDPQKAFFSGRLKARGNIMLSQKLQMILKDYAKL” the “soluble on expression in E. coli” value was “soluble”.
